system: K562 CRISPRi cells; assay: Constant region variant library pooled growth screen, K562; assay type: cell-based, human; conditions: sgRNA constant region variants; activity relative to the original, un-modified constant region cr995
Method in brief: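 K562 CRISPRi, duplicate transductions; puromycin 1 d 0.75 μg/mL then 1 d 0.85 μg/mL; >2000× coverage in spinner flasks; harvests at 4-8 d growth. Activity = phenotype ÷ phenotype with unmodified constant region.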

Row | Molecule | Mean relative activity
1 | cr479 (nucleic acid, listed as DNA, chemistry not fully specified) guide: GTTTAAGAGCTAAGCTGGAAACAGCATAGCAAGTTTAAATAAGGCTAGTCCGTTATCAAGTTGAAAAACTGGGACCCAGTGGGTCCT | 0.5994
2 | cr282 (nucleic acid, listed as DNA, chemistry not fully specified) guide: GTTTAAGAGCTAAGCTGGAAACAGCATAGCAAGTTTAAATAAGGCTAGTCCGTTATCAACTTGAAAAAGTGCACCCGAGTCGGGTGT | 1.049
3 | cr631 (nucleic acid, listed as DNA, chemistry not fully specified) guide: GTTTAAGAGCTAAGCTGGAAACAGCATAGCAAGTTTAAATAAGGATATTCCGTTATCAACATGAAAATGTGGCAACGAGTCGTTGCT | 0.6014
4 | cr531 (nucleic acid, listed as DNA, chemistry not fully specified) guide: GTTTAAGAGCTAAGCTGGTAACAGCATAGCAAGTTTAAATAAGGCTAGTCCGTTATCAACTTGAAAAAGTGGCACCGAGTCGGTGCT | 1.048
5 | cr134 (nucleic acid, listed as DNA, chemistry not fully specified) guide: GTTTAAGAGCTAAGCTGGAAACAGCATAGCAAGTTTAAATAAGGCTAGTCCGTTATTAACTTGAACAAGTGGCACCGAGTCGGTGCT | 0.5692
6 | cr915 (nucleic acid, listed as DNA, chemistry not fully specified) guide: GTTTAAGAGCTAAGCTGGAAACAGCATAGCAAGTTTAAATAAGGCTAGTCCGTTATCAACTTGAAAAAGTGGCACCCAGTGGGTGCT | 0.5965
7 | cr837 (nucleic acid, listed as DNA, chemistry not fully specified) guide: GTTTAAGAGCTAAGCTGGAAACAGCATAGCAAGTTTAAATAAGGCTAGTCCGTTATCAACTTGAAAAAGTGGCACCCAGTCGGTGCT | 0.5543
8 | cr458 (nucleic acid, listed as DNA, chemistry not fully specified) guide: GTTTAAGAGCTAAGCTGGAAACAGCATAGCAAGTTTAAATAAGGCTAGTCCGTTATCAACTTGAGAAAGTCGCACCGAGTCGGTGCT | 0.5958
9 | cr500 (nucleic acid, listed as DNA, chemistry not fully specified) guide: GTTTAAGAGCTAAGCTGGAAACAGCATAGCAAGTTTAAATAAGGCTAGTCCGTTATCAACTTGAAAAAGTGGCACCGAGGCGGTGCT | 0.5743
10 | cr008 (nucleic acid, listed as DNA, chemistry not fully specified) guide: GTCTAAGAGCTAAGCTGGAAACAGCATAGCAAGTTTAAATAAGGCTAGTCCGTTATCAACTTGAAAAAGTGGCACCGAGTCGGTGCT | 0.5955
11 | cr827 (nucleic acid, listed as DNA, chemistry not fully specified) guide: GTTTAAGAGCTAAGCTGGAAACAGCATAGCAAGTTTAAATAAGGATATTCCGTTATCAACTTGAAAAAGTGGCTACGAGTCGTAGCT | 0.5792
12 | cr651 (nucleic acid, listed as DNA, chemistry not fully specified) guide: GTTTAAGAGCTAAGCTGGAAACAGCATAGCAAGTTTAAATAAGGCTAGTCCGTTTGCAACTTGAAAAAGTAGCACCGAGTCGGTGCT | 0.5637
13 | cr440 (nucleic acid, listed as DNA, chemistry not fully specified) guide: GTTTAAGAGCTAAGCTGGAAACAGCATAGCAAGTTTAAATAAGGCTAGTCCGTTATCAACTTGAAAAACTGGCACCGAGTCGGTGCT | 0.5863
14 | cr481 (nucleic acid, listed as DNA, chemistry not fully specified) guide: GTTTAAGAGCTAAGCTGGAAACAGCATAGCAAGTTTAAATAAGGGTACTCCGTTATCAACTTGAAAAAGTGACACCGAGTCGGTGTT | 0.5936
15 | cr842 (nucleic acid, listed as DNA, chemistry not fully specified) guide: GTTTAAGAGCTAAGCTGGAAACAGCATAGCAAGCTTAAATAAGGCTAGTCCGTTATCAGCTTGAAAAAGCGGCACCGAGTCGGTGCT | 0.5544
16 | cr803 (nucleic acid, listed as DNA, chemistry not fully specified) guide: GTTTAAGAGCTAAGCTGGAAACAGCATAGCAAGTTTAAATAAGGATATTCCGTTATCAACTTGAGAAAGTGGCACCGAGTCGGTGCT | 0.578

Row | Molecule | Mean relative activity
17 | cr223 (nucleic acid, listed as DNA, chemistry not fully specified) guide: GTTTAAGAGCTAAGCTGGAAACAGCATAGCAAGTTTAAATAAGGGTACTCCGTTATCAACTTGAAAAAGTGGCACCGAGTCGGTGCT | 0.5667
18 | cr491 (nucleic acid, listed as DNA, chemistry not fully specified) guide: GTTTAAGAGCTAAGCTGGAAACAGCATAGCAAGTTTAAATAAGGATATTCCGTTATCAAGTTGAAAAACTGGCACCGAGTCGGTGCT | 0.5775
19 | cr300 (nucleic acid, listed as DNA, chemistry not fully specified) guide: GTTTAAGAGCTAAGCTGGAAACAGCATAGCAAGTTTAAATAAGGATATTCCGTTATCAACTTGAAAAAGTGATACCGAGTCGGTATT | 0.592
20 | cr330 (nucleic acid, listed as DNA, chemistry not fully specified) guide: GTTTAAGAGCTAAGCTGGAAACAGCATAGCAAGTTTAAATAAGGATATTCCGTTATCAACTTGAAAAAGTGCCACCGAGTCGGTGGT | 0.5762
21 | cr456 (nucleic acid, listed as DNA, chemistry not fully specified) guide: GTTTAAGAGCTAAGCTGGAAACAGCATAGCAAATTTAAATAAGGCAAGTCCGTTATCAACTTGAAAAAGTGGCACCGAGTCGGTGCT | 0.5821
22 | cr989 (nucleic acid, listed as DNA, chemistry not fully specified) guide: GTTTAAGAGCTAAGCTGGAAACAGCATAGCAAGTTTAAATAAGGCTAGTCCGTTATCAACTTGAAAAAATGGCACCGAGTCGGTGCT | 0.5623
23 | cr533 (nucleic acid, listed as DNA, chemistry not fully specified) guide: GTTTAAGAGCTAAGCTGGAAACAGCATAGCAAGTTTAAATAAGGCTAGTCCGTTATCAGCTTGAAAAAGCGGCGGCGAGTCGCCGCT | 0.5558
24 | cr602 (nucleic acid, listed as DNA, chemistry not fully specified) guide: GTTTAAGAGCTAAGCTGGAAACAGCATAGCAAGTTTAAATAAGGCTAGTCCGTTATCAACTTGAAAAAGTGGCGCCGAGTCGGCGCT | 1.049
25 | cr957 (nucleic acid, listed as DNA, chemistry not fully specified) guide: GTTTAAGAGCTAAGCTGGAAACAGCATAGCAAGTTTAAATAAGGGTACTCCGTTATCAACTTGAAAAAGTGCCACCGAGTCGGTGGT | 0.5576
26 | cr927 (nucleic acid, listed as DNA, chemistry not fully specified) guide: GTTTAAGAGCTAAGCTGGAAACAGCATAGCAAGTTTAAATAAGGCTAGTCCGTTATCAACTTGAAAAAGTGGCGCCCAGTGGGCGCT | 0.5921
27 | cr598 (nucleic acid, listed as DNA, chemistry not fully specified) guide: GTTTAAGAGCTAAGCTGGAAACAGCATAGCAAGCTTAAATAAGGCTAGTCCGTTATCAACTGGAAACAGTGGCACCGAGTCGGTGCT | 0.5934
28 | cr976 (nucleic acid, listed as DNA, chemistry not fully specified) guide: GTTTAAGAGCTAAGCTGGAAACAGCATAGCAAGTTTAAATAAGGGTACTCCGTTATCAACTTGAGAAAGTGGCACCGAGTCGGTGCT | 0.5594
29 | cr846 (nucleic acid, listed as DNA, chemistry not fully specified) guide: GTTTAAGAGCTAAGCTGGAAACAGCATGGCAAGTTTAAATAAGGCTAGTCCGTTATCAACTTAAAAAAGTGGCACCGGGTCGGTGCT | 0.5528
30 | cr338 (nucleic acid, listed as DNA, chemistry not fully specified) guide: GTTTAAGAGCTAAGCTGGAAACAGCATAGCAAGTCTAAATAAGGCGAGTCCGTTATCAACTTGAAAAAGTGGCACCGAGTCGGTGCT | 0.5831
31 | cr726 (nucleic acid, listed as DNA, chemistry not fully specified) guide: GTTTAAGAGCTAAGCTGGAAACAGCATAGCATGTTTAAATAAGGCTAGTCCATTCTCAACTTGAAAAAGTGGCACCGAGTCGGTGCT | 0.5903

From patent US20220259593A1, “CONTROL OF MAMMALIAN GENE DOSAGE USING CRISPR” (The Regents of the University of California, priority 2019, published 2022)
